The results in this text go back to patent publication US20210070819A1 (INSERM INSTITUT NATIONAL DE LA SANT ET DE LA RECHERCHE M …, published 2021).

Assay [1] has as its target T1, HLA-A*02:01 (human).
T1 construct: also called HLA-A2; A2
As to the kind of experiment: experimental HLA-A2 peptide binding assay, format not described (data not shown).

The target in assay [2] is T2, biotin-tagged HLA-A*03:01 monomers (immunAware) (human, biotin tag).
T2 construct: Bought monomers folded around the test peptide; also called HLA-A3; A3
Briefly: flow cytometry bead assay: biotinylated HLA-A*03:01 monomer folded with peptide, captured on streptavidin beads, detected with anti-β2-microglobulin BBM.1; 1.2 nM complex (data not shown). On the technique in general: In flow cytometry, cells or beads pass a laser one at a time.

FLSGAVNRL (also called SCG-009186-194) [SCG5-009186-194]: in assay [1], the binding result is “binds”.
RLKPSLVGK [SCG5-009193-201]: in assay [2], the binding result is reported as “binds”.
Turning to YLQGQRLDNV [SCG5186-195], the binding result in assay [1] was “binds”.
